{"source": "the Immune Epitope Database (IEDB)", "key": {"HLA-A*01:01": {"target": "HLA-A*01:01", "experiment": "IEDB peptide-MHC binding, purified MHC/direct/fluorescence; filed as Kd, often an IC50 or EC50 that approximates it; ≥ and ≤ were set here for values at or beyond the usual limits of such assays", "conditions": "source organism: Marburg virus - Musoke, Kenya, 1980"}, "HLA-A*02:01": {"target": "HLA-A*02:01", "experiment": "IEDB peptide-MHC binding, purified MHC/direct/fluorescence; filed as Kd, often an IC50 or EC50 that approximates it; ≥ and ≤ were set here for values at or beyond the usual limits of such assays", "conditions": "source organism: Marburg virus - Musoke, Kenya, 1980"}, "HLA-A*11:01": {"target": "HLA-A*11:01", "experiment": "IEDB peptide-MHC binding, purified MHC/direct/fluorescence; filed as Kd, often an IC50 or EC50 that approximates it; ≥ and ≤ were set here for values at or beyond the usual limits of such assays", "conditions": "source organism: Marburg virus - Musoke, Kenya, 1980"}, "HLA-A*31:01": {"target": "HLA-A*31:01", "experiment": "IEDB peptide-MHC binding, purified MHC/direct/fluorescence; filed as Kd, often an IC50 or EC50 that approximates it; ≥ and ≤ were set here for values at or beyond the usual limits of such assays", "conditions": "source organism: Marburg virus - Musoke, Kenya, 1980"}, "HLA-A*68:02": {"target": "HLA-A*68:02", "experiment": "IEDB peptide-MHC binding, purified MHC/direct/fluorescence; filed as Kd, often an IC50 or EC50 that approximates it; ≥ and ≤ were set here for values at or beyond the usual limits of such assays", "conditions": "source organism: Marburg virus - Musoke, Kenya, 1980"}, "HLA-B*07:02": {"target": "HLA-B*07:02", "experiment": "IEDB peptide-MHC binding, purified MHC/direct/fluorescence; filed as Kd, often an IC50 or EC50 that approximates it; ≥ and ≤ were set here for values at or beyond the usual limits of such assays", "conditions": "source organism: Marburg virus - Musoke, Kenya, 1980"}, "HLA-B*08:02": {"target": "HLA-B*08:02", "experiment": "IEDB peptide-MHC binding, purified MHC/direct/fluorescence; filed as Kd, often an IC50 or EC50 that approximates it; ≥ and ≤ were set here for values at or beyond the usual limits of such assays", "conditions": "source organism: Orthomarburgvirus marburgense"}, "HLA-B*15:01 [1]": {"target": "HLA-B*15:01", "experiment": "IEDB peptide-MHC binding, purified MHC/direct/fluorescence; filed as Kd, often an IC50 or EC50 that approximates it; ≥ and ≤ were set here for values at or beyond the usual limits of such assays", "conditions": "source organism: Marburg virus - Musoke, Kenya, 1980"}, "HLA-B*15:09": {"target": "HLA-B*15:09", "experiment": "IEDB peptide-MHC binding, purified MHC/direct/fluorescence; filed as Kd, often an IC50 or EC50 that approximates it; ≥ and ≤ were set here for values at or beyond the usual limits of such assays", "conditions": "source organism: Orthomarburgvirus marburgense"}, "HLA-B*15:17": {"target": "HLA-B*15:17", "experiment": "IEDB peptide-MHC binding, purified MHC/direct/fluorescence; filed as Kd, often an IC50 or EC50 that approximates it; ≥ and ≤ were set here for values at or beyond the usual limits of such assays", "conditions": "source organism: Marburg virus - Musoke, Kenya, 1980"}, "HLA-B*18:01": {"target": "HLA-B*18:01", "experiment": "IEDB peptide-MHC binding, purified MHC/direct/fluorescence; filed as Kd, often an IC50 or EC50 that approximates it; ≥ and ≤ were set here for values at or beyond the usual limits of such assays", "conditions": "source organism: Marburg virus - Musoke, Kenya, 1980"}, "HLA-B*27:02": {"target": "HLA-B*27:02", "experiment": "IEDB peptide-MHC binding, purified MHC/direct/fluorescence; filed as Kd, often an IC50 or EC50 that approximates it; ≥ and ≤ were set here for values at or beyond the usual limits of such assays", "conditions": "source organism: Orthomarburgvirus marburgense"}, "HLA-B*27:05": {"target": "HLA-B*27:05", "experiment": "IEDB peptide-MHC binding, purified MHC/direct/fluorescence; filed as Kd, often an IC50 or EC50 that approximates it; ≥ and ≤ were set here for values at or beyond the usual limits of such assays", "conditions": "source organism: Marburg virus - Musoke, Kenya, 1980"}, "HLA-B*48:01": {"target": "HLA-B*48:01", "experiment": "IEDB peptide-MHC binding, purified MHC/direct/fluorescence; filed as Kd, often an IC50 or EC50 that approximates it; ≥ and ≤ were set here for values at or beyond the usual limits of such assays", "conditions": "source organism: Marburg virus - Musoke, Kenya, 1980"}, "HLA-B*57:01": {"target": "HLA-B*57:01", "experiment": "IEDB peptide-MHC binding, purified MHC/direct/fluorescence; filed as Kd, often an IC50 or EC50 that approximates it; ≥ and ≤ were set here for values at or beyond the usual limits of such assays", "conditions": "source organism: Marburg virus - Musoke, Kenya, 1980"}, "HLA-B*58:01": {"target": "HLA-B*58:01", "experiment": "IEDB peptide-MHC binding, purified MHC/direct/fluorescence; filed as Kd, often an IC50 or EC50 that approximates it; ≥ and ≤ were set here for values at or beyond the usual limits of such assays", "conditions": "source organism: Marburg virus - Musoke, Kenya, 1980"}, "HLA-B*73:01": {"target": "HLA-B*73:01", "experiment": "IEDB peptide-MHC binding, purified MHC/direct/fluorescence; filed as Kd, often an IC50 or EC50 that approximates it; ≥ and ≤ were set here for values at or beyond the usual limits of such assays", "conditions": "source organism: Marburg virus - Musoke, Kenya, 1980"}, "HLA-A*02:06": {"target": "HLA-A*02:06", "experiment": "IEDB peptide-MHC binding, purified MHC/competitive/fluorescence; filed as Kd, often an IC50 or EC50 that approximates it; ≥ and ≤ were set here for values at or beyond the usual limits of such assays", "conditions": "source organism: Orthomarburgvirus marburgense"}, "HLA-A*26:02": {"target": "HLA-A*26:02", "experiment": "IEDB peptide-MHC binding, purified MHC/competitive/fluorescence; filed as Kd, often an IC50 or EC50 that approximates it; ≥ and ≤ were set here for values at or beyond the usual limits of such assays", "conditions": "source organism: Orthomarburgvirus marburgense"}, "HLA-A*32:07": {"target": "HLA-A*32:07", "experiment": "IEDB peptide-MHC binding, purified MHC/competitive/fluorescence; filed as Kd, often an IC50 or EC50 that approximates it; ≥ and ≤ were set here for values at or beyond the usual limits of such assays", "conditions": "source organism: Yersinia pestis Nepal516"}, "HLA-A*32:15": {"target": "HLA-A*32:15", "experiment": "IEDB peptide-MHC binding, purified MHC/competitive/fluorescence; filed as Kd, often an IC50 or EC50 that approximates it; ≥ and ≤ were set here for values at or beyond the usual limits of such assays", "conditions": "source organism: Yersinia pestis Nepal516"}, "HLA-A*68:23": {"target": "HLA-A*68:23", "experiment": "IEDB peptide-MHC binding, purified MHC/competitive/fluorescence; filed as Kd, often an IC50 or EC50 that approximates it; ≥ and ≤ were set here for values at or beyond the usual limits of such assays", "conditions": "source organism: Yersinia pestis Nepal516"}, "HLA-B*15:01 [2]": {"target": "HLA-B*15:01", "experiment": "IEDB peptide-MHC binding, purified MHC/competitive/fluorescence; filed as Kd, often an IC50 or EC50 that approximates it; ≥ and ≤ were set here for values at or beyond the usual limits of such assays", "conditions": "source organism: Yersinia pestis Nepal516"}, "HLA-B*15:42": {"target": "HLA-B*15:42", "experiment": "IEDB peptide-MHC binding, purified MHC/competitive/fluorescence; filed as Kd, often an IC50 or EC50 that approximates it; ≥ and ≤ were set here for values at or beyond the usual limits of such assays", "conditions": "source organism: Yersinia pestis Nepal516"}, "HLA-B*35:01": {"target": "HLA-B*35:01", "experiment": "IEDB peptide-MHC binding, purified MHC/competitive/fluorescence; filed as Kd, often an IC50 or EC50 that approximates it; ≥ and ≤ were set here for values at or beyond the usual limits of such assays", "conditions": "source organism: Yersinia pestis Nepal516"}, "HLA-B*40:13": {"target": "HLA-B*40:13", "experiment": "IEDB peptide-MHC binding, purified MHC/competitive/fluorescence; filed as Kd, often an IC50 or EC50 that approximates it; ≥ and ≤ were set here for values at or beyond the usual limits of such assays", "conditions": "source organism: Yersinia pestis Nepal516"}, "HLA-B*45:06": {"target": "HLA-B*45:06", "experiment": "IEDB peptide-MHC binding, purified MHC/competitive/fluorescence; filed as Kd, often an IC50 or EC50 that approximates it; ≥ and ≤ were set here for values at or beyond the usual limits of such assays", "conditions": "source organism: Yersinia pestis Nepal516"}, "HLA-B*51:01": {"target": "HLA-B*51:01", "experiment": "IEDB peptide-MHC binding, purified MHC/competitive/fluorescence; filed as Kd, often an IC50 or EC50 that approximates it; ≥ and ≤ were set here for values at or beyond the usual limits of such assays", "conditions": "source organism: Yersinia pestis Nepal516"}, "HLA-B*83:01": {"target": "HLA-B*83:01", "experiment": "IEDB peptide-MHC binding, purified MHC/competitive/fluorescence; filed as Kd, often an IC50 or EC50 that approximates it; ≥ and ≤ were set here for values at or beyond the usual limits of such assays", "conditions": "source organism: Yersinia pestis Nepal516"}}}
{"sequence": "KRLLLKLDF", "values": [{"measurement": "Kd", "setting": "HLA-A*01:01", "value": "≥ 20", "unit": "µM"}, {"measurement": "Kd", "setting": "HLA-A*02:01", "value": "≥ 20", "unit": "µM"}, {"measurement": "Kd", "setting": "HLA-A*11:01", "value": "≥ 20", "unit": "µM"}, {"measurement": "Kd", "setting": "HLA-A*31:01", "value": "≥ 20", "unit": "µM"}, {"measurement": "Kd", "setting": "HLA-A*68:02", "value": "≥ 20", "unit": "µM"}, {"measurement": "Kd", "setting": "HLA-B*07:02", "value": "≥ 20", "unit": "µM"}, {"measurement": "Kd", "setting": "HLA-B*08:02", "value": "≥ 20", "unit": "µM"}, {"measurement": "Kd", "setting": "HLA-B*15:01 [1]", "value": "≥ 20", "unit": "µM"}, {"measurement": "Kd", "setting": "HLA-B*15:09", "value": "≥ 20", "unit": "µM"}, {"measurement": "Kd", "setting": "HLA-B*15:17", "value": "≥ 20", "unit": "µM"}, {"measurement": "Kd", "setting": "HLA-B*18:01", "value": "≥ 20", "unit": "µM"}, {"measurement": "Kd", "setting": "HLA-B*27:02", "value": 12.2, "unit": "µM"}, {"measurement": "Kd", "setting": "HLA-B*27:05", "value": 382, "unit": "nM"}, {"measurement": "Kd", "setting": "HLA-B*48:01", "value": "≥ 20", "unit": "µM"}, {"measurement": "Kd", "setting": "HLA-B*57:01", "value": "≥ 20", "unit": "µM"}, {"measurement": "Kd", "setting": "HLA-B*58:01", "value": "≥ 20", "unit": "µM"}, {"measurement": "Kd", "setting": "HLA-B*73:01", "value": "≥ 20", "unit": "µM"}, {"measurement": "Kd", "setting": "HLA-A*02:06", "value": 3.93, "unit": "µM"}, {"measurement": "Kd", "setting": "HLA-A*26:02", "value": "≥ 20", "unit": "µM"}]}
{"sequence": "MPFAWQFGF", "values": [{"measurement": "Kd", "setting": "HLA-A*32:07", "value": 5.6, "unit": "nM"}, {"measurement": "Kd", "setting": "HLA-A*32:15", "value": 3.2, "unit": "nM"}, {"measurement": "Kd", "setting": "HLA-A*68:23", "value": 2.7, "unit": "nM"}, {"measurement": "Kd", "setting": "HLA-B*15:01 [2]", "value": "≥ 20", "unit": "µM"}, {"measurement": "Kd", "setting": "HLA-B*15:42", "value": "≥ 5", "unit": "µM"}, {"measurement": "Kd", "setting": "HLA-B*35:01", "value": "≤ 0.1", "unit": "nM"}, {"measurement": "Kd", "setting": "HLA-B*40:13", "value": 232, "unit": "nM"}, {"measurement": "Kd", "setting": "HLA-B*45:06", "value": "≥ 5", "unit": "µM"}, {"measurement": "Kd", "setting": "HLA-B*51:01", "value": 669, "unit": "nM"}, {"measurement": "Kd", "setting": "HLA-B*83:01", "value": 29.7, "unit": "nM"}]}
